Target: GCaMP2 [GFP: P42212]
Assay: SEC

- percent present as dimer at the concentrations seen in the brain slice (∼10 μM): 5%
- stoichiometry N: 2
Substance: GCaMP2 (from UniProt P42212 149-238; P42212 1-144)

Source: paper PMC2649101
